T1: PUF4 RNA-binding domain (Saccharomyces cerevisiae, UniProt P25339 537-888)
T1 sequence: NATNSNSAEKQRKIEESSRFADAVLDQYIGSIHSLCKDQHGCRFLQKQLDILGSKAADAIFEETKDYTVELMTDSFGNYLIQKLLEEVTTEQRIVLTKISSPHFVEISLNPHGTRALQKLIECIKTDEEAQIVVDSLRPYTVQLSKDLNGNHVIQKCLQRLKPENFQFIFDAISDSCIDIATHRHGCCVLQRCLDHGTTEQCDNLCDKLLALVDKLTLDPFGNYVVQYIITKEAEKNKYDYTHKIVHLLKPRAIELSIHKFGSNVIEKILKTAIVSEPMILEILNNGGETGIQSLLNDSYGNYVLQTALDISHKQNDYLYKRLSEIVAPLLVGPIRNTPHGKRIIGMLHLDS

B1: Ie_S4_P3E.2_K3.1_C3.2_H3.1_A3.1_[+6TC]_F3.1_T3.2 (ssRNA)
RNA: UUUGACAACUGAUCGUUCUUUCUCUUGUAUAUCUAUAUUCUUUCUCGAUCAGUUGUCUUU
B2: Ie_S4_P3E.2_K3.1_C3.2_H3.1_A3.1_F3.1_[+8CC]_T3.2 (ssRNA)
RNA: B1 RNA with C33A, U34C, A35C
B3: Ib_S2_P3E.1_K3.1_C3.1_H3.1_[G2A]_A3.1_[T5A]_F3.1_T3.1 (ssRNA)
RNA: UUUGAUUAAUAUGAUAUCGUUCUUUCUUAUAAAUAUUCUUUCUCGAUAUCAUAUUAAUCUUU
B4: Ie_S4_P3E.2_K3.1_C3.2_H3.1_A3.1_[+6C]_F3.1_T3.2 (ssRNA)
RNA: UUUGACAACUGAUCGUUCUUUCUCUUGUAUACUAUAUUCUUUCUCGAUCAGUUGUCUUU
B5: Ie_S4_P3E.2_K3.1_C3.2_H3.1_A3.1_F3.1_[+7C]_T3.2 (ssRNA)
RNA: B4 RNA with C32U, U33C
B6: Ie_S4_P3E.2_K3.1_C3.2_H3.1_A3.1_F3.1_[+8T]_T3.2 (ssRNA)
RNA: B4 RNA with C32U, U33A, A34U
B7: Ie_S4_P4E.1_K4.1_C4.1_H4.1_[+1CTCT]_A4.1_F4.1_T4.1 (ssRNA)
RNA: B4 RNA with C24U, U25C, G27C, A29G, C32U, U33A, A34U
B8: Ie_S4_P3E.2_K3.1_C3.2_H3.1_A3.1_F3.1_[+8CCCTT]_T3.2 (ssRNA)
RNA: UUUGACAACUGAUCGUUCUUUCUCUUGUAUAUACCCUUUAUUCUUUCUCGAUCAGUUGUCUUU
B9: Ie_S4_P4E.1_K4.1_C4.1_H4.1_[+2C]_A4.1_F4.1_T4.1 (ssRNA)
RNA: UUUGACAACUGAUCGUUCUUUCUUGCUAUAUUAUUCUUUCUCGAUCAGUUGUCUUU
B10: Ie_S4_P4E.1_K4.1_C4.1_H4.1_[+1CTC]_A4.1_F4.1_T4.1 (ssRNA)
RNA: UUUGACAACUGAUCGUUCUUUCUUCUCGUAUAUUAUUCUUUCUCGAUCAGUUGUCUUU
B11: Ie_S4_P4E.1_K4.1_C4.1_H4.1_[+1TTT]_A4.1_F4.1_T4.1 (ssRNA)
RNA: B10 RNA with C25U, C27U
B12: Ie_S4_P4E.1_K4.1_C4.1_H4.1_[+1TCC]_A4.1_F4.1_T4.1 (ssRNA)
RNA: B10 RNA with C25U, U26C
B13: Ie_S4_P3E.2_K3.1_C3.2_H3.1_[+4CCC]_A3.1_F3.1_T3.2 (ssRNA)
RNA: UUUGACAACUGAUCGUUCUUUCUCUUGUACCCUAUAUAUUCUUUCUCGAUCAGUUGUCUUU
B14: Ie_S4_P3E.2_K3.1_C3.2_H3.1_[+4CCT]_A3.1_F3.1_T3.2 (ssRNA)
RNA: B13 RNA with C32U
B15: Ie_S4_P3E.2_K3.1_C3.2_H3.1_[+4CTC]_A3.1_F3.1_T3.2 (ssRNA)
RNA: B13 RNA with C31U
B16: Ie_S4_P4E.1_K4.1_C4.1_H4.1_[+1CCCT]_A4.1_F4.1_T4.1 (ssRNA)
RNA: UUUGACAACUGAUCGUUCUUUCUUCCCUGUAUAUUAUUCUUUCUCGAUCAGUUGUCUUU
B17: Ie_S4_P3E.2_K3.1_C3.2_H3.1_[+3CCTCT]_A3.1_F3.1_T3.2 (ssRNA)
RNA: UUUGACAACUGAUCGUUCUUUCUCUUGUCCUCUAUAUAUAUUCUUUCUCGAUCAGUUGUCUUU
B18: Ie_S4_P3E.2_K3.1_C3.2_H3.1_[+3TTCCT]_A3.1_F3.1_T3.2 (ssRNA)
RNA: B17 RNA with C29U, C30U, U31C
B19: Ie_S4_P4E.1_K4.1_C4.1_H4.1_[+1CT]_A4.1_F4.1_T4.1 (ssRNA)
RNA: UUUGACAACUGAUCGUUCUUUCUUCUGUAUAUUAUUCUUUCUCGAUCAGUUGUCUUU
B20: Ie_S4_P4E.1_K4.1_C4.1_H4.1_[+1CTCTC]_A4.1_F4.1_T4.1 (ssRNA)
RNA: UUUGACAACUGAUCGUUCUUUCUUCUCUCGUAUAUUAUUCUUUCUCGAUCAGUUGUCUUU

The text below walks through data of paper PMC9352680, “A comprehensive thermodynamic model for RNA binding by the Saccharomyces cerevisiae Pumilio protein PUF4”.

Positions count from the first letter of the chain named. Numbers in names are those of the source.

This data set deals with T1, PUF4 RNA-binding domain. The data set is described as follows: Mg; RNA-MaP; 20 mM Na-HEPES pH 7.4, 30 mM KOAc, 0.75 mM MgCl2, 0.1% Tween-20, 5% glycerol, 0.1 mg/mL BSA, 2 mM DTT; 25 C; 0.0125-409.6 nM protein. To be noted: tags: N-His6-TEV cleaved; C-SNAP kept, Cy3B-labelled; label: tethered on chip by stalled RNA polymerase.
Consider B1, for which binding was put at a Kd of 2.11 nM.
In the case of B2 it was 2.91 nM.
Regarding B3, the Kd (as a rule, the free concentration of one partner at which half of the binding sites on the other are occupied at equilibrium, for simple one-to-one binding) came out at 1820 nM.
In the case of B4 it was 0.411 nM.
In the case of B5 it was 2.77 nM; in that of B6, 1.33 nM; in that of B7, 0.208 nM.
In the case of B8 it was 6.29 nM; in that of B9, 148 nM.
Regarding B10, the Kd stood at 8.22 nM.
Next, B11: 0.249 nM; B12: 7.21 nM; B13: 1.57 nM.
In the case of B14 it was 1.24 nM.
In the case of B15 it was 1.08 nM.
Take B16: binding was put at a Kd of 0.155 nM.
In the case of B17 it was 21.3 nM.
In the case of B18 it was 19.9 nM; in that of B19, 0.223 nM; in that of B20, 5.7 nM.
